Target: PD-L1 (Homo sapiens, UniProt Q9NZQ7)
Experiment: In vitro autoradiography blocking study in human lung tumor and xenograft tissue sections
Parameters: PD-L1-positive L2987 human lung carcinoma cells or PD-L1-negative HT-29 human colorectal adenocarcinoma cells; endogenous in cells; host or cells: L2987 human lung carcinoma cells (HT-29 as PD-L1-negative control)
Conditions: A02 0.025-25 nM, non-PD-L1 binding adnectin 25 nM, 1 hour room temperature
Procedure: Human lung tumor tissues were embedded in OCT and chilled in 2-methylbutane for 2-5 minutes until frozen. The samples were stored in −80° C. degree freezer until use. Human xenograft tissues were also included in the assay. Mice bearing bilateral xenografts were produced by introducing 4×10^6 PD-L1(+) L2987 cells and 1.5×10^6 PD-L1(−) HT-29 t cells subcutaneously into opposite flanks of nu/nu mice. Once resulting xenograft tumors reached appropriate size (approx. 200-300 mm^3) mice were anesthetized with 2% isoflurane and sacrificed via cervical dislocation. Fresh tumor tissues were excised, immersed into OCT and chilled in 2-methylbutane for 2-5 minutes until frozen. The tissues were then wrapped in foil/ZIPLOC® bag and stored at −80° C. until use. For all tissues (human lung tumor and xenografts) sections of 5 μm thickness (collected as 2 sections/slide) were cut using a cryostat, thaw-mounted on glass microscope slides, and allowed to air dry for approximately 30 minutes.
Blocking studies with cold (unlabeled) A02 adnectin at 0.025 nM, 0.25 nM, 2.5 nM and 25 nM respectively and 25 nM non-PD-L1 binding adnectin were conducted using the following conditions. […] Autoradiography signal from tissue-associated radioactivity was quantified from these ROIs.

Chain of PD-L1 (Q9NZQ7 19-290): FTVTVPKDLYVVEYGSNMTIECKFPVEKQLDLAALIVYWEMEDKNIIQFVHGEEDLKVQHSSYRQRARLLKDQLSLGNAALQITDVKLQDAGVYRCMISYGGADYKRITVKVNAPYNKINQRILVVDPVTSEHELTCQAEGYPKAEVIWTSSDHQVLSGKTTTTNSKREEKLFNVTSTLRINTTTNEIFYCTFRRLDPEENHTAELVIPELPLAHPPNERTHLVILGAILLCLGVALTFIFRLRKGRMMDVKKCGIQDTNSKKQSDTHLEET

B1: A02 adnectin: anti-PD-L1 Adnectin, SEQ ID NO: 2, cold (unlabeled) (protein)
chain: EVVAATPTSLLISWSYDGPIDRYYRITYGETGGNSPVQEFTVPPDQKTATISGLKPGVDYTITVYAVRLEEAHYNREFPISINYRTPC
modifications: Synthetic 18F-radiolabeled PD-L1 Adnectin, A02
- displacement / blockade of 0.25 nM ^18F-A02 adnectin radioligand compared to total binding: dose dependent displacement
